# From the nanobody polyreactivity screen of Harvey et al. (2022)
# Test: yeast display, Sf9 membrane polyspecificity reagent, FACS + sequencing; frameworks hold sequencing errors
# Summary of the method: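 Galactose-induced (36–48 hours) yeast carrying a synthetic nanobody display library were exposed to 10% biotinylated, detergent-solubilized Sf9 membrane reagent at 4 °C for 1 hour. FACS followed streptavidin microbead enrichment, using low and high (top ~1%) gates for expression (anti-HA) and reagent binding (streptavidin). Colony PCR, MiSeq 2 × 250 sequencing and CDR-length filtering followed. Labels for polyreactivity reflect the gate of origin.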
row,Sequence,polyreactivity (PSR sort gate)
1,QVQLVESGGGLVQAGGSLRLSCAASGFTFNGKSMGLYRQAPGKERELVAAISYSGGSTYYADSVKGRFTISRDYAKNTVYLQMNSLKPEDTSVYYCAADRTAYSVRGYTKVHSGHDYWGQGTQVSVSS,low polyreactivity
2,QVQLVESGGGLVQAGGSLRLSCAASGFTFNKYAMGWYRQEPGKERELVAAISVSGSRTYYADSVKGRFTISRDNAKNTFYLQMNSLKPEDTAVYYCAATHYSQVSDDYWGQGTQVTVSS,high polyreactivity
3,QVQLVESGGGLVQAGGSLRLSCAASGFTFNKYDMGWYRQAPGKERELVAVITWSGGSTYYADSVKGRFTISRDNAKNTVYLQMKSLKPEDTAVYYCNAEAPRYTYGRMDYWGQGTQVTVSS,low polyreactivity
4,QVQLVESGGGLVQAGGSLRLSCAASGFTFNNYAMGWYRQAPGKERELVAAISSVGRTYYADSVKGRFTISRDNAKNTVYLQLNSLKPEDTAVYYCAVVYPARGSGNDSWGQGTQVTLSS,high polyreactivity
5,QVQLVESGGGLVQAGGSLRLSCAASGFTFNPNAMGWYRQAPGKERELVAAITWSSGRTYYADSVKGRFTISRDNAKNTVYLQMNSLKPEDTAVYYCAARGYSYNYDYWGQGTQVTVSS,high polyreactivity
6,QVQLVESGGGLVQAGGSLRLSCAASGFTFNRNAMGWYIQAPGKERELVAAISWSGGSTYYADSVKGRFTISRDNAKNTVYLQMNSLKPEDTAVYYCAKGYRRVYGPFYYWGQGTQVTVSS,low polyreactivity
7,QVQLVESGGGLVQAGGSLRLSCAASGFTFNRYAMGWYRQAPGKERELVAAISRSTATTYYADSVKGRFTISRDNAKNTVYLQMNSLKPEDTAVYYCNAPQRYWPPYGYWGQGTQVTVSS,high polyreactivity
8,QVQLVESGGGLVQAGGSLRLSCAASGFTFNWYAMAWYRQAPGKERELVATINSGGSTYYADSVKGRFTISRDNAKNTVYLQMISLKPEDTAVYYCNRTHRRRYVKSAYIYWGQGTQVTVSS,low polyreactivity
9,QVQLVESGGGLVQAGGSLRLSCAASGFTFNYYAMGGYRQAPGKERELVAAIDSGTSTNYADSVKGRFTISRDNAKNTVYLQMNSLKPEDTAVYYCAADPGIFDGIFDYWGQGSQVTVSS,low polyreactivity
10,QVQLVESGGGLVQAGGSLRLSCAASGFTFNYYAMGWYRQAPGTERELVAAITSSGGSTYYADSVKGRFTISRDNAKNTVYLLMNSLKPEDTAVYYCNAAVYDHRYIYGFDYWGQGTQVTVSS,high polyreactivity
11,QVQLVESGGGLVQAGGSLRLSCAASGFTFPAYVMRWYRQAPGKERELVAAISKSGGSTYYADSVKGRFTISRDNAKNTVYLQMNCLKPEDTAVYYCAKYWVTRRFQYDYWGQGTQVTVSS,high polyreactivity
12,QVQLVESGGGLVQAGGSLRLSCAASGFTFPDYAMGWYRQAPAKERELVAAISSDGSTYYADSVNGRFTISRDNAHNTVYLQMNSLKPEDTAVYYCAAYVVWLYGYDYWGQGTQVTVSS,low polyreactivity
13,QVQLVESGGGLVQAGGSLRLSCAASGFTFPGYARGWYRQAPGKERELVAAISRGGAGTYYADSVKGRFTISRDNAKNTVYLQMNSLKPEDTAVYYCAAVYYVDYPDGNYEYWGQGTQVTVSS,high polyreactivity
14,QVQLVESGGGLVQAGGSLRLSCAASGFTFPGYTMGWYRQAPGKERELVAAITWSGGSTYYADSVKGRFTISRDTAKNTVYLQMNSLKPEDTAVYYCAAKYGAYYGNRDYWGQGTQVTVSS,high polyreactivity
15,QVQLVESGGGLVQAGGSLRLSCAASGFTFPHYAMGRYRQAPGKERELVAAINGGDTRTYYADSVKGRFTSSRDNAKNTVYLQRNSLKPEDTAVYYCAADREAGGTRLSRDYYWGQGTQVTVSS,high polyreactivity
16,QVQLVESGGGLVQAGGSLRLSCAASGFTFPKYAMGWYRQAPGKERELVAAISYRGGSTYYADSVKGRFTISRDNAKNTVYLQMNSLKPEDTAVYYCAAEIPHAPYEYWGQGTQVTVSS,high polyreactivity
17,QVQLVESGGGLVQAGGSLRLSCAASGFTFPLYAMGWYRQAPGKERELVAVISRSGGSTYYADSVKGRFTISRDNAKNTVYLQMNSLKPEDTAVYYCATRRRPQYNKYDYWGQGTQVTVSS,high polyreactivity
18,QVQLVESGGGLVQAGGSLRLSCAASGFTFPSNAMGWYRQAPGKERELVAAISSTDSTNYADSVKGRFTISRDNAKNTVYFQMNSLKPEDTAVYYCAKRYPRYRYNTRGNDYWGQGTQVTVSS,low polyreactivity
19,QVQLVESGGGLVQAGGSLRLSCAASGFTFPSNAMGWYRQAPGKERELVAAISSTDSTNYADSVKGRFTISRDNAKNTVYLQMNSLKPEDTAVYYCNADRDDDYDYWGQGTQVTVSS,low polyreactivity
20,QVQLVESGGGLVQAGGSLRLSCAASGFTFPSYTMGWYRQAPGKERELVAAISRSDGTTYYADSVKGRFTISRDNAKNTVYLQMNSLKPEDTAVYYCNKAYKRYGYHYDYWGQGTQVTVSS,high polyreactivity
21,QVQLVESGGGLVQAGGSLRLSCAASGFTFPVYAMGWSRQAPGKERELVAAISWSGGGTYYADSVKGRFTISRDNAKNTVYVQMNSLKPEDTAVYYCAVEDLSHAYVQHYRYGYGYWGQGTQVTVSS,low polyreactivity
22,QVQLVESGGGLVQAGGSLRLSCAASGFTFPVYVLGWYRQAPGKERELVAAISGGGGTSYADSVKGRFTISRDNAKNTVYLQMNSLKPEDTAVYYCAADYRTYVYVYGFRHFDYWGQGTQVTVSS,low polyreactivity

row,Sequence,polyreactivity (PSR sort gate)
1,QVQLVESGGGLVQAGGSLRLSCAASGFTFPWNVMGWYRQAPGKERELVAAITYDGGGTYADSVKGRFTISRDNAKNTVYLQMNSLKPEDTAVYYSNADLIYGEEYDYWGQGTQVTVSS,low polyreactivity
2,QVQLVESGGGLVQAGGSLRLSCAASGFTFPWYAMVWYRQSPGKERELVASISYRGDSTYYADSVKGRFTISRDNAKNTVNLQMNILKPEDTAVYYCNKLLASYYLPGFDYWGQGTQVTVSS,low polyreactivity
3,QVQLVESGGGLVQAGGSLRLSCAASGFTFPYNAMGWYRQAPGKERELVAAISSGDSTYYADSVKGRFTISRDNAKNTVYLQMKSLKPEDTAVYYCDAYPSLYYTKYDYWGQGTQVTVSS,high polyreactivity
4,QVQLVESGGGLVQAGGSLRLSCAASGFTFPYNAMGWYRQAPGKERELVAAISWSGGSTYYADSVKGRFTISRDNAKNTVYLQMNSLKPEDTAVYYCAASYWRIPMEYWGQVTQVTVSS,high polyreactivity
5,QVQLVESGGGLVQAGGSLRLSCAASGFTFPYYAMGRYRQAPGKERELVAAITRSGGSTNYADSVKGRFTISRDNAKNTVYLQMNSLKPEDTAVYYCNAPPGYSSTRNGYWGQGTQVTVSS,high polyreactivity
6,QVQLVESGGGLVQAGGSLRLSCAASGFTFPYYAMGWYRPAPGKERELVAAISRNGGSTYYADSVKGRFTISRDNAKNTVYFQMNRLKPEDTAVYYCNKKWLGWADPSLDKRYDYWGQGTQVTVSS,high polyreactivity
7,QVQLVESGGGLVQAGGSLRLSCAASGFTFPYYAMGWYRQALGKERELVAGISRGGSTYYADSVKGRFTISRDNAKNTVYLQMNSLKPEDTAVYYCAADRYIGQYTYYYWGQGTQVTVSS,high polyreactivity
8,QVQLVESGGGLVQAGGSLRLSCAASGFTFPYYAMGWYRQAPGKERELVAAISSSGGRTYYADSVKGRFTISRDNAKNTVYLQMNSLKPEDTAVYYCAVRGKAYRRLRDYWGQGTQVTVSS,high polyreactivity
9,QVQLVESGGGLVQAGGSLRLSCAASGFTFPYYAQGWYRQAPGKETELVATISTGSGVSTYDADSVKGRFTISRDNAKNTVYLQMNSLKPEDTAVYYCAAVFGWRRYVTYDYWGQGTQVTVSS,low polyreactivity
10,QVQLVESGGGLVQAGGSLRLSCAASGFTFPYYTMGWYRQAPGKERELVAAITSSGGSTYYADSVKGRFTISRDNAKNTVYLQMNSLKPEDTAVYYCNAAVYAHRYIYGFDYWGQGTQVTVSS,high polyreactivity
11,QVQLVESGGGLVQAGGSLRLSCAASGFTFPYYTMGWYRQAPGKERELVATISYSGGRTYYADSVKGRFTISRDNAKNTVYLQMNSLKPEDTAVYYCNKVVRLQSRYDYWGQGTQVTVSS,high polyreactivity
12,QVQLVESGGGLVQAGGSLRLSCAASGFTFQAYAMGWYRQAPGKERELVAAIRSRGDSTYYADSVKGRFTISRDNAKNTVYLQMNSLKPEDTAVYYCNVLGYSYWGQGTQVTVSS,high polyreactivity
13,QVQLVESGGGLVQAGGSLRLSCAASGFTFQFNAMGWYRQAPGKERELVAAITWSGDSTYYADSVKGRFTISRDNAKNTVYLQMISLKPEDTAVYYCNADYGWVDTYTNYDYWGQGTQVTVSS,low polyreactivity
14,QVQLVESGGGLVQAGGSLRLSCAASGFTFQGNVMGWYRQAPGKERELVAVITSGGSTYYADSVKGRFTISRDNAKNTVYLQMNSLKPEDTAVYYCAARAYTWGPAGQVEKYYYWGQGTQVTVSS,high polyreactivity
15,QVQLVESGGGLVQAGGSLRLSCAASGFTFQYNAMGWYRQAPGKERELVAAITWTGTSTYADSVKGRFTISRDNATNTVYLQMNSLKPEDTAVYYCADSYYAPRWFRYDYWGQGTQVTVSS,low polyreactivity
16,QVQLVESGGGLVQAGGSLRLSCAASGFTFQYYPMGWYRQAPGKERELVAAISWSGGSTNYADSVKGRFTISRDNAKNTVYLQMNSLKPEDTAVYYCNAVHYYVEYDYWGQGTQVTVSS,high polyreactivity
17,QVQLVESGGGLVQAGGSLRLSCAASGFTFRANAMGWYRQAPGKERELVAAISQSGGRTYYADSVKGRFTISRDNAKNTVYLQMNSLKPEDTAVYYCAAPYSAKELYYRMDYWGQGTQVTVSS,high polyreactivity
18,QVQLVESGGGLVQAGGSLRLSCAASGFTFRANAMGWYRQAPGKERELVAVITGSGGRTYYADSVKGRFTISRDNAKNTVYLQMNSLKPEDTAVYYCNASGRKTNPYDYWGQGTQVTVSS,high polyreactivity
19,QVQLVESGGGLVQAGGSLRLSCAASGFTFRAYAMGWYRQAPGKASELVATISGRGGSTYYADSVKGRFPISRDNAKNTVYLQMNSLKPEDTAVYYCARRFWSEYVTGVGGYNFWGQGTQVTVSS,high polyreactivity
20,QVQLVESGGGLVQAGGSLRLSCAASGFTFRAYAMGWYRQAPGKEREFVAAISRRGGSTSYADSVKGRFTISRDNAKNTVYLQMNSLKPEDTAVYYCAATYQILTTSAHDSWGQGTQVTVSS,high polyreactivity
21,QVQLVESGGGLVQAGGSLRLSCAASGFTFRAYAMGWYRQAPGKERELVAAISTSGGSTYYADSVKGRFTISRDNAKNTVYLQMNSLKPEDTSVYYCAKRGLQGYWSPYNYWGQGTQVTVSS,high polyreactivity
